From patent US20260274955A1 (JANUX THERAPEUTICS, published 2026)
Where two headings read alike, the source gives them in different places. No end group written: not given here.

B1: Peptide-39 (peptide)
peptide: YCAGHAWQYINKCL
modifications: cysteine pairing not given here; also: biotinylated, site not given here
notes: synthetic peptide
B2: Peptide-66 (peptide)
peptide: YCAGHAWQYIAKCL
notes: alanine scanning peptide of Peptide-39 (N11A)
B3: Peptide-65 (peptide)
peptide: YCAGHAWQYANKCL
notes: alanine scanning peptide of Peptide-39 (I10A)
B4: Peptide-62 (peptide)
peptide: YCAGHAAQYINKCL
notes: alanine scanning peptide of Peptide-39 (W7A)
B5: Peptide-68 (peptide)
peptide: YCAGHAWQYINKCA
notes: alanine scanning peptide of Peptide-39 (L14A)
B6: Peptide-63 (peptide)
peptide: YCAGHAWAYINKCL
notes: alanine scanning peptide of Peptide-39 (Q8A)
B7: anti-CD28 Fab (Fab, V domains shown)
VH: QVQLVQSGAEVKKPGASVKVSCKASGYTFTSYYIHWVRQAPGQGLEWIGSIYPGNVNTNYNEKFKDRATLTVDTSISTAYMELSRLRSDDTAVYFCTRSHYGLDWNFDVWGQGTTVTVSS
VL: not shown

Legend:
[1] = target: T1, anti-CD28 Fab (SEQ ID NOs: 202, 203); test: binding ELISA, peptide captured, anti-CD28 Fab titrated
T1 construct: biotinylated when captured in the phage ELISAs

Ab-1 [2] = target: T2, Ab-1; test: BLI (Octet), 200 nM peptide, 100 nM Ab-1;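 for t1/2: association and dissociation phases tracked in real time, with kinetics fitted to a 1:1 interaction model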
T2 construct: also called anti-CD28 scFv harbored in Ab-1

Ab-1 [3] = target: T2, Ab-1; test: binding ELISA, peptide captured, Ab-1 titrated
Ab-1 [4] = target: T2, Ab-1; test: competition ELISA, peptide titrated vs 1 nM Ab-1 binding plate-bound CD28
[5] = target: T3, anti-CD28 scFv (SEQ ID NO: 35); test: phage binding ELISA, scFv on plate, CD28 as competitor
T3 construct: also called anti-CD28 scFv wt Vh-linker-Vl

Ab-1 [6] = target: T2, Ab-1; test: BLI (Octet), peptide on sensor, Ab-1 titrated, 1:1 model
[7] = target: T4, anti-CD28 scFv wt Vh-linker-Vl (biotinylated (site not stated)); test: phage ELISA on captured scFv, CD28 as competitor
T4 construct: captured on neutravidin plates

[8] = target: T5, anti-CD28 scFv (SEQ ID NO: 35); test: BLI (Octet)
T5 construct: also called anti-CD28 scFv wt Vh-linker-Vl; human anti-CD28 scFv

anti-CD28 Fab [9] = target: B7; test: competition ELISA, alanine scan of Peptide-44, Fab binding plate-bound CD28
[10] = target: T1, anti-CD28 Fab (SEQ ID NOs: 202, 203); test: binding ELISA, peptide captured, anti-CD28 Fab titrated; remark: listed apart in the source
anti-CD28 Fab [11] = target: B7; test: competition ELISA, alanine scan of Peptide-39, Fab binding plate-bound CD28
Ab-1 [12] = target: T2, Ab-1; test: BLI (Octet), peptide on sensor, Ab-1 titrated, 1:1 model; remark: listed apart in the source
Ab-1 [13] = target: T2, Ab-1; test: BLI (Octet), 20 nM peptide, 100 nM Ab-1
Ab-1 [14] = target: T2, Ab-1; test: competition ELISA, peptide titrated vs 1 nM Ab-1 binding plate-bound CD28; remark: listed apart in the source
Ab-1 [15] = target: T2, Ab-1; test: binding ELISA, peptide captured, Ab-1 titrated; remark: listed apart in the source
Ab-1 [16] = target: T2, Ab-1; test: BLI (Octet), 200 nM peptide, 100 nM Ab-1; remark: listed apart in the source;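 for t1/2: association and dissociation phases tracked in real time, with kinetics fitted to a 1:1 interaction model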
Peptide-84 = target: T6, Peptide-84 (cysteine pairing not given here; also: biotinylated, site not given here); test: BLI, peptide on sensor, Fab in solution, 1:1 model
T6 construct: optimization library of Peptide-39
T6 peptide: YCEGHLPEYRNKCL

Peptide-72 = target: T7, Peptide-72 (cysteine pairing not given here; also: biotinylated, site not given here); test: BLI, peptide on sensor, Fab in solution, 1:1 model
T7 construct: optimization library of Peptide-39
T7 peptide: YCEGHLPEYIEKCL

Peptide-73 = target: T8, Peptide-73 (cysteine pairing not given here; also: biotinylated, site not given here); test: BLI, peptide on sensor, Fab in solution, 1:1 model
T8 construct: optimization library of Peptide-39
T8 peptide: YCEGHAPEYIAKCL

Peptide-39 = target: B1; test: BLI, peptide on sensor, Fab in solution, 1:1 model
Peptide-79 = target: T9, Peptide-79 (cysteine pairing not given here; also: biotinylated, site not given here); test: BLI, peptide on sensor, Fab in solution, 1:1 model
T9 construct: optimization library of Peptide-39
T9 peptide: YCEGHLPEYLAKCL

Peptide-86 = target: T10, Peptide-86 (cysteine pairing not given here; also: biotinylated, site not given here); test: BLI, peptide on sensor, Fab in solution, 1:1 model
T10 construct: optimization library of Peptide-39
T10 peptide: YCEGHLPEYIQKCL

Peptide-78 = target: T11, Peptide-78 (cysteine pairing not given here; also: biotinylated, site not given here); test: BLI, peptide on sensor, Fab in solution, 1:1 model
T11 construct: optimization library of Peptide-39
T11 peptide: YCEGHLPEYREKCL

## YCAGHAWQYINKCL (cysteine pairing not given here; also: biotinylated, site not given here)
[1]
  EC50: 49 nM

## LDWCPRHLWALCFN (cysteine pairing not given here; also: biotinylated, site not given here) [Peptide-22]
Ab-1 [2]
  Octet signal (200 nM peptide): 0.697
Ab-1 [3]
  EC50: 8.2 nM
Ab-1 [4]
  IC50: 470 nM

## IHLCHWVPWIKCSH [Phage-1664]
[5]
  CD28 scFv signal in presence of CD28: 2.51

## IDWCPLHLWHECYH (cysteine pairing not given here; also: biotinylated, site not given here) [Peptide-24]
Ab-1 [2]
  Octet signal (200 nM peptide): 0.838
Ab-1 [3]
  EC50: 13.3 nM
Ab-1 [4]
  IC50: 1520 nM

## IDWCPRYLWDECYN (cysteine pairing not given here; also: biotinylated, site not given here) [Peptide-23]
Ab-1 [2]
  Octet signal (200 nM peptide): 1.52
Ab-1 [6]
  Kd: 16 nM
  t1/2: 9.1 min
Ab-1 [3]
  EC50: 2.1 nM
Ab-1 [4]
  IC50: 140 nM

## IDWCPTAGWTYCWF [Phage-1513]
[7]
  CD28 scFv signal in presence of CD28: 0.075

## VPWCQIISGLECLT (cysteine pairing not given here; also: biotinylated, site not given here) [Peptide-25]
Ab-1 [2]
  Octet signal (200 nM peptide): 0.166
Ab-1 [3]
  EC50: 54.9 nM
Ab-1 [4]
  IC50: > 100000 nM

## GYCHYWGDMVMWCG (cysteine pairing not given here; also: biotinylated, site not given here, biotinylated for capture in BLI) [Peptide-118]
[8]
  binding result: binds

## SCAAGASYAWPYCL (cysteine pairing not given here; also: biotinylated, site not given here, synthetic peptide)
anti-CD28 Fab [9]
  IC50: 7.89 mM

## SCAAGASYAWPYCA [Peptide-58]
anti-CD28 Fab [9]
  IC50: 76.4 mM

## SCAAGAAYAWPYCL [Peptide-53]
anti-CD28 Fab [9]
  IC50: 7.42 mM

## SCAAGASYAWPACL [Peptide-57]
anti-CD28 Fab [9]
  IC50: 12.9 mM

## ACAAGASYAWPYCL [Peptide-51]
anti-CD28 Fab [9]
  IC50: 21 mM

## SCAAGASYAWPYCL (cysteine pairing not given here; also: biotinylated, site not given here)
[10]
  EC50: 18.9 nM
[1]
  EC50: 54 nM

## B1
anti-CD28 Fab [11]
  IC50: 12.6 mM

## B2
anti-CD28 Fab [11]
  IC50: 5.49 mM

## B3
anti-CD28 Fab [11]
  IC50: 102 mM

## B4
anti-CD28 Fab [11]
  IC50: 3.16 mM

## B5
anti-CD28 Fab [11]
  IC50: 98.6 mM

## B6
anti-CD28 Fab [11]
  IC50: 12.3 mM

## IYWCPIDRWNDCYN (cysteine pairing not given here; also: biotinylated, site not given here) [Peptide-26]
Ab-1 [2]
  Octet signal (200 nM peptide): 0.705
Ab-1 [3]
  EC50: 7.6 nM
Ab-1 [4]
  IC50: 410 nM

## MDWCPRDLWVHCFA (cysteine pairing not given here; also: biotinylated, site not given here) [Peptide-1]
Ab-1 [2]
  Octet signal (200 nM peptide): 1.8
Ab-1 [12]
  Kd: 15.1 nM
  t1/2: 15.5 min
Ab-1 [13]
  Octet signal (20 nM peptide): 0.509
Ab-1 [14]
  IC50: 60 nM
Ab-1 [15]
  EC50: 4 nM
Ab-1 [16]
  Octet signal: 2.03
  t1/2: 9.8 min
Ab-1 [3]
  EC50: 1 nM
[1]
  EC50: 490 nM
Ab-1 [4]
  IC50: 200 nM

## EDWCPRDLWVHCFA (cysteine pairing not given here; also: biotinylated, site not given here) [Peptide-7]
Ab-1 [12]
  Kd: 23.2 nM
  t1/2: 3.1 min
Ab-1 [14]
  IC50: 300 nM
Ab-1 [15]
  EC50: 32.8 nM
Ab-1 [16]
  Octet signal: 1.02
  t1/2: 3 min

## KDWCPRDLWVHCFA (cysteine pairing not given here; also: biotinylated, site not given here) [Peptide-12]
Ab-1 [12]
  Kd: 26.1 nM
  t1/2: 4.5 min
Ab-1 [14]
  IC50: 190 nM
Ab-1 [15]
  EC50: 19.7 nM
Ab-1 [16]
  Octet signal: 1.13
  t1/2: 4 min

## TDWCPRDLWVHCFA (cysteine pairing not given here; also: biotinylated, site not given here) [Peptide-16]
Ab-1 [12]
  Kd: 25.5 nM
  t1/2: 4.7 min
Ab-1 [14]
  IC50: 590 nM
Ab-1 [15]
  EC50: 24 nM
Ab-1 [16]
  Octet signal: 1.34
  t1/2: 4.2 min

## B7
Peptide-84
  Kd: 110 nM
  koff: 0.0138 s⁻¹
  kon: 125000 M⁻¹ s⁻¹
  t½: 0.8 min
Peptide-72
  Kd: 926 nM
  koff: 0.0239 s⁻¹
  kon: 25800 M⁻¹ s⁻¹
  t½: 0.5 min
Peptide-73
  Kd: 831 nM
  koff: 0.028 s⁻¹
  kon: 33700 M⁻¹ s⁻¹
  t½: 0.4 min
Peptide-39
  Kd: 2020 nM
  koff: 0.0202 s⁻¹
  kon: 10000 M⁻¹ s⁻¹
  t½: 0.6 min
Peptide-79
  Kd: 44.7 nM
  koff: 0.0118 s⁻¹
  kon: 264000 M⁻¹ s⁻¹
  t½: 1 min
Peptide-86
  Kd: 40.2 nM
  koff: 0.0115 s⁻¹
  kon: 286000 M⁻¹ s⁻¹
  t½: 1 min
Peptide-78
  Kd: 141 nM
  koff: 0.0191 s⁻¹
  kon: 135000 M⁻¹ s⁻¹
  t½: 0.6 min

## ACDTYFAGMINECF (cysteine pairing not given here; also: biotinylated, site not given here) [Peptide-31]
[1]
  EC50: 97 nM

## YCAGHSPINIGKCL (cysteine pairing not given here; also: biotinylated, site not given here) [Peptide-36]
[1]
  EC50: 337 nM
